Results as given in article doi:10.1101/2024.06.24.600433, “Role of the antiparallel double-stranded filament form of FtsA in activating the Escherichia coli divisome” (bioRxiv, 2024).

B1: FtsA^M71A with Q155C (natural protein, E. coli, UniProt P0ABH0 1-420, looked up)
chain: MIKATDRKLVVGLEIGTAKVAALVGEVLPDGMVNIIGVGSCPSRGMDKGGVNDLESVVKCVQRAIDQAELAADCQISSVYLALSGKHISCQNEIGMVPISEEEVTQEDVENVVHTAKSVRVRDEHRVLHVIPQEYAIDYQEGIKNPVGLSGVRMCAKVHLITCHNDMAKNIVKAVERCGLKVDQLIFAGLASSYSVLTEDERELGVCVVDIGGGTMDIAVYTGGALRHTKVIPYAGNVVTSDIAYAFGTPPSDAEAIKVRHGCALGSIVGKDESVEVPSVGGRPPRSLQRQTLAEVIEPRYTELLNLVNEEILQLQEKLRQQGVKHHLAAGIVLTGGAAQIEGLAACAQRVFHTQVRIGAPLNITGLTDYAQEPYYSTAVGLLHYGKESHLNGEAEVEKRVTASVGSWIKRLNSWLRKEF
notes: FtsA of E. coli with M71A and Q155C; M71A introduced into pWM7049 or pWM7239 by site-directed mutagenesis; I take them to be the Q155C and the R286W Q155C derivatives of pDSW210-FLAG-FtsA; source: E. coli, expressed from a plasmid, in cells (crosslinked in vivo)
B2: FLAG-FtsA^Q155C (natural protein, E. coli, UniProt P0ABH0 1-420, looked up)
chain: MIKATDRKLVVGLEIGTAKVAALVGEVLPDGMVNIIGVGSCPSRGMDKGGVNDLESVVKCVQRAIDQAELMADCQISSVYLALSGKHISCQNEIGMVPISEEEVTQEDVENVVHTAKSVRVRDEHRVLHVIPQEYAIDYQEGIKNPVGLSGVRMCAKVHLITCHNDMAKNIVKAVERCGLKVDQLIFAGLASSYSVLTEDERELGVCVVDIGGGTMDIAVYTGGALRHTKVIPYAGNVVTSDIAYAFGTPPSDAEAIKVRHGCALGSIVGKDESVEVPSVGGRPPRSLQRQTLAEVIEPRYTELLNLVNEEILQLQEKLRQQGVKHHLAAGIVLTGGAAQIEGLAACAQRVFHTQVRIGAPLNITGLTDYAQEPYYSTAVGLLHYGKESHLNGEAEVEKRVTASVGSWIKRLNSWLRKEF
notes: FtsA of E. coli with Q155C, made by site-directed mutagenesis on pWM2785 (pDSW210-FLAG-FtsA); probably the whole FtsA reading frame, since it complements an ftsA null allele; also called pDSW210-FLAG-FtsA^Q155C; source: E. coli, expressed from pDSW210 with IPTG, in cells (crosslinked in vivo); not shown: FLAG, N-terminal, kept

Key:
[1] = molecular target: the molecule itself; test: cross-linking; in vivo cysteine crosslinking of E. coli cells in cold PBS with 0.5 mM BMB or BMH for 10 min, quenched with 40 mM BME; SDS-PAGE and anti-FtsA immunoblot; dividing cells (ftsZ84(ts) 10 and 20 min after return to 30°C; ftsQ1ts, zipA1ts and ftsA^o strains at 30°C, ftsA^o strain also at 42°C; WM4952 at 37°C; WM4953 ftsL*)
[2] = molecular target: the molecule itself; test: cross-linking; in vivo cysteine crosslinking, ftsQ1(ts) strain WM7148 shifted to the nonpermissive 42°C; anti-FtsA immunoblot
[3] = molecular target: the molecule itself; test: cross-linking; in vivo cysteine crosslinking, zipA1(ts) strain WM7149 shifted to the nonpermissive 42°C; anti-FtsA immunoblot

Row | Protein | DS filament crosslinking at Q155C relative to WT FtsA [1] | fold decrease of the crosslinked band at 42°C against 30°C [2] [fold] | fold decrease of the crosslinked band at 42°C against 30°C [3] [fold]
1 | B1 | ~35 % of WT levels | – | –
2 | B2 | – | 3 | 7.5
